Assay results: patent US20240400680A1 (SHANGHAI CELGEN BIO PHARMACEUTICAL, published 2024)

T1: full-length human TIGIT on the cell membrane (CHO-K-TIGIT cells; TIGIT-Jurkat cells) (human) (UniProt Q495A1)
T1 sequence (looked up): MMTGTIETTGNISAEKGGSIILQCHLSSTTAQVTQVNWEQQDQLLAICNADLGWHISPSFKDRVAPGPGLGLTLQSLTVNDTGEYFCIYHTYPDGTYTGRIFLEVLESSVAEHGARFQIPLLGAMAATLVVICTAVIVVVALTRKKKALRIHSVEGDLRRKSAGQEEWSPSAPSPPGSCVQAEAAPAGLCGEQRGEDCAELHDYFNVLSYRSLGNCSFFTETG

T2: recombinant human TIGIT (Human TIGIT His, Sino Biological, 10917-H08H) (human, UniProt Q495A1 22-138)
T2 construct: range 1-138; Bought protein; also called recombinant human TIGIT antigen; recombinant human TIGIT protein; not shown: C-terminal histidine tag
T2 sequence (looked up): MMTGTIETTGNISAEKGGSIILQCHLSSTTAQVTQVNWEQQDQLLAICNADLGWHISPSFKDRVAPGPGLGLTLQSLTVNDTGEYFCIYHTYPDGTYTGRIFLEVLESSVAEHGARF

T3: full-length human TIGIT on the cell membrane (CHO-K-TIGIT cells; TIGIT-Jurkat cells) (human, UniProt Q495A1 22-244)
T3 construct: whole, on cells; Also used here for TIGIT on human PBMCs in the IFN-gamma assay; also called CHO-TIGIT
T3 sequence (looked up): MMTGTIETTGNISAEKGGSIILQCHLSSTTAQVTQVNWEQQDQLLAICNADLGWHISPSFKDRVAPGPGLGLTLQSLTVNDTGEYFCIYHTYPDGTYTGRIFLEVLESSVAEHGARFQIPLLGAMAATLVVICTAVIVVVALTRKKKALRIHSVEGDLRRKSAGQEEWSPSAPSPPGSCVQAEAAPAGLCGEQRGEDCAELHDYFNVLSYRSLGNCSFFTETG


Key:
[1] = target: T1, full-length human TIGIT on the cell membrane (CHO-K-TIGIT cells; TIGIT-Jurkat cells) (human); assay: cell-based or functional assay
[2] = target: recombinant human TIGIT (Human TIGIT His, Sino Biological, 10917-H08H) (human) (UniProt Q495A1); assay: BLI (GATOR), antibody on human antibody capture probe, TIGIT-His 40-10 nM
[3] = target: T2, recombinant human TIGIT (Human TIGIT …); assay: ELISA on recombinant human TIGIT protein
[4] = target: T3, full-length human TIGIT on the cell …; assay: flow cytometry on TIGIT-Jurkat cells
Method: The binding activity of the anti-TIGIT antibody-IL2 fusion proteins to TIGIT on the cell membrane was tested using flow cytometry. A Jurkat cell line stably expressing human TIGIT was first established. The full-length human TIGIT gene (Sinobio) was amplified by PCR and cloned into the mammalian cell expression vector pcDNA3.1 (Invitrogen), using Not I and Xba I as cloning enzymes. The TIGIT expression plasmid was transfected into Jurkat cells to construct a stable Jurkat cell line expressing TIGIT (TIGIT-Jurkat).
The flow cytometry study method for the binding of TIGIT antibody-IL2 fusion proteins to cell membrane-bound TIGIT is summarized as follows: FACS buffer (1×PBS+0.5% BSA solution) was prepared. The required number of TIGIT-Jurkat cells, about 1×10⁵ to 5×10⁵ cells per sample, was taken and incubated with HC1-IL2 wt/LC1 (ART-Ig) and HC1-IL2mut/LC1 (ART-Ig) diluted to a certain ratio in FACS buffer, approximately 100 μL, at 4° C. for 30 minutes. After washing the cells once with FACS buffer, they were resuspended in FITC-conjugated anti-human IgG (Abcam: 6854) diluted in FACS buffer and incubated at 4° C. for 30 minutes. Finally, after washing the cells with FACS buffer, they were resuspended in 200 μL of FACS buffer for analysis. The parent TIGIT antibody P03479 was used as a control.

Molecule	Kd [2] [nM]	koff [2] [s⁻¹]	kon [2] [M⁻¹ s⁻¹]	also measured
Tiragolumab (antibody)	–	–	–	IFNγ release from PHA-activated PBMCs, increase [1]: 16%
human-mouse chimeric TIGIT monoclonal antibody 7103-07 (hFc) (antibody, from a related filing, V domains shown) VH: EVQVVESGGGLVKPGGTLKLSCAASGFTFSTYAMSWVRQSPEQRLEWVAEISSGGSHTFYSDTVTGRFTISRDNAQNTLYLEMNSLRSEDTAMYYCARKTLDYYALDYWGQGTSVTVSS VL: DVQITQSPSYLAASPGETITINCRASKSISKYLAWYQEKPGKTNKLLIYSGSRLQSGIPSKFSGSGYGTDFTLTISSLEPEDFAMYYCQQHNEYPWTFGGGTKVEIK	2.96	0.00169	573000	–
humanized anti-TIGIT monoclonal antibody P03489 (antibody, V domains shown, Only variable domains are tied to P03489 itself; HC2/LC2 of the fusion proteins derive from it) VH: QVQLVQSGAEVKKPGASVKVSCKASGYTFISYNIYWVRQAPGQGLEWMGGVNPSNGNTNFNENFQGRVTMTVDTSISTAYMELSRLRSDDTAVYYCTRGNYYGYEFAYWGQGTTVTVSS VL: DIQMTQSPSSMSASVGDRVTITCKASQHVSTAVAWYQQKPGKAPKLLIYSPSYRYTGVPSRFSGSGSGTDFTFTISSVQPEDIATYYCQQHYSTPWTFGGGTKLEIK	–	–	–	EC50 [3]: 0.5 nM
human-mouse chimeric TIGIT monoclonal antibody 7103-01 (hFc) (antibody, from a related filing, V domains shown) VH: QVQLQQPGAELVKPGASVKLSCKASGYTFISYNIYWVKQRPGQGLEWIGGVNPSNGNTNFNENFKSKATLTVDKSSSTAYMQLSSLTSDDSAVYFCTRGNYYGYEFAYWGQGTLVTVSA VL: DIVMTQSHKFMSTSVGDRVSITCKASQHVSTAVAWYQQKPGQSPKLLIYSPSYRYTGVPDRFTGSGSGTDFTFTISSVQAEDLAVYYCQQHYSTPWTFGGGTKLEIK	1.73	0.000951	549000	–
humanized anti-TIGIT monoclonal antibody P03479 (antibody, V domains shown, Only variable domains are tied to P03479 itself; HC1/LC1 of the fusion proteins derive from it) VH: EVQVVESGGGLVKPGGSLRLSCAASGFTFSTYAMSWVRQAPGKGLEWVAEISSGGSHTFYADTVKGRFTISRDNAKNTLYLQMNSLRAEDTAVYYCARKTLDYYALDYWGQGTTVTVSS VL: DVQITQSPSYLSASVGDRVTINCRASKSISKYLAWYQQKPGKAPKLLIYSGSRLQSGIPSRFSGSGYGTDFTLTISSLQPEDFATYYCQQHNEYPWTFGGGTKLEIK	–	–	–	EC50 [4]: 0.26 mg/L
